T1: cynomolgus monkey B7-H7 (soluble analyte in SPR) (cynomolgus monkey)
T1 sequence: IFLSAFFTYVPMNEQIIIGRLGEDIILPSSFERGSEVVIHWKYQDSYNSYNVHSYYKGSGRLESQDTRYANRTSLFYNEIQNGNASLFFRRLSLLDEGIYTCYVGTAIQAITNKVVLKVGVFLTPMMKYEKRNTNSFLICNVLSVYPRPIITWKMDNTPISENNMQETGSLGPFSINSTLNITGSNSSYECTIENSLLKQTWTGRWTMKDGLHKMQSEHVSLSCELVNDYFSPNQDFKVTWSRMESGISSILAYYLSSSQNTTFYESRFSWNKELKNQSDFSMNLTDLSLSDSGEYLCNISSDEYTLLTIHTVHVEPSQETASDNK


target: T1, cynomolgus monkey B7-H7 (soluble analyte in SPR) (cynomolgus monkey); assay: SPR (Biacore)

Row | Kd [nM] | koff [s⁻¹] | Binder
1 | 0.65 | 0.00011 | anti-B7-H7 antibody 2D7 (antibody, V domains shown) VH: EVQLQQSGPELVKPGASVKISCKTSGYTFTEYTMHWVKQSHGKSLEWIGGINPNNYGAPYNQKFKGKATLTVDKSSNTAYMELRSLTSEDSAIYYCASGGYYFDYWGQGTTLTVSS VL: DIVMTQSHKFMSTSFGDRVSITCKASQDVGTAVAWYQQKLGQSPKLLISWAFTRHTGVPDRFTGSGSGTDYTLTISSLQAEDLALYYCQQHYDTPFTFGSGTKLEIK
2 | 0.14 | 3.5e-05 | chimeric 2D7 antibody comprising the murine heavy chain and light chain variable regions of 2D7 and a human Fc region (antibody, V domains shown) VH: EVQLQQSGPELVKPGASVKISCKTSGYTFTEYTMHWVKQSHGKSLEWIGGINPNNYGAPYNQKFKGKATLTVDKSSNTAYMELRSLTSEDSAIYYCASGGYYFDYWGQGTTLTVSS VL: DIVMTQSHKFMSTSFGDRVSITCKASQDVGTAVAWYQQKLGQSPKLLISWAFTRHTGVPDRFTGSGSGTDYTLTISSLQAEDLALYYCQQHYDTPFTFGSGTKLEIK
3 | 0.4 | 7.6e-05 | humanized anti-B7-H7 antibody Hz2D7 (antibody, human IgG1, kappa, V domains shown) VH: QVQLVQSGAEVKKPGASVKVSCKTSGYTFTEYTMHWVRQAPGQGLEWMGGINPNNYGAPYNQKFKGRVTMTVDTSISTAYMELSRLRSDDTAVYYCASGGYYFDYWGQGTLVTVSS VL: DIQMTQSPSSLSASVGDRVTITCKASQDVGTAVAWYQQKPGKAPKLLIYWAFTRHTGVPSRFSGSGSGTDYTLTISSLQPEDFATYYCQQHYDTPFTFGQGTKVEIKR

target: T1, cynomolgus monkey B7-H7 (soluble analyte in SPR) (cynomolgus monkey); assay: SPR (Biacore), antibody captured by anti-Fc on CM5 chip, B7-H7 injected, 37 C

Row | Binder | Kd [nM]
4 | anti-B7-H7 antibody 3H6 (antibody, V domains shown) VH: EVQLQQSGPELVKPGASVKISCKTSGYTFTEYTMHWVKQSHGKSLEWIGGINPNNGGAPYNQKFKGKATLTVDKSSSTAYMELRSLTSEDSAVYYCARGGYYFDYWGQGTTLTVSS VL: DIVMTQSHKFMSTSVGDRVSITCKASQDVSTAVAWYQQKSGQSPKLLIYWASTRHTGVPDRFTGSGSGTDYTLTISSVQAEDLALYYCQQHYDTPFTFGGGTKLEIK | 6.9
5 | anti-B7-H7 antibody 2F10 (antibody, V domains shown) VH: EIQLQQTGPELVKPGASLRISCKASGYSFTDYIIVWVKQNQGKNLDWIEKINPYYGTTTYNLRFEDKATLTVNKSSTTAYMQLNSLTSEDSAVYYCARWDYVSTLFAMDYWGQGTSITVSS VL: DIVMTQSHKVMSTSVGDRVSIICKASQDVGTAVAWYQQKPGQSPKLLIYWASTRHTGVPDRFTGSGSGTDFILTITNVQSENLANYFCQQYKRYYTFGGGTKLEIK | 8.6
6 | anti-B7-H7 antibody 16D5 (antibody, V domains shown) VH: QVQLQQSAAELARPGASVKMSCKASGYTFTTYTMHWVKQRPGQGLEWIGYINPSRGYSDYSQKFQGKSTLTTDKSSNTAYIQLTSLTSEDSAVYFCARGGYDFDYWGQGTTLTVSS VL: DIVMTQSHKFMSTSVGDRVSITCKASQDVGTAVAWYQQKPGQSPKLLLYWASTRHTGVPDRFTGSGSGTDYTLTISSVQAEDLALYHCQQHFITPYTFGGGTKLEIK | 6.9

Continued, values first:

Row | Kd [nM] | Binder
7 | 4.8 | anti-B7-H7 antibody 5C9 (antibody, V domains shown) VH: QVQLQQSGAELAKPGASVKMSCKASGYTFTSFWIHWIKQRPGQGLEWIGYIIPNTDYTEYNQKFKDKATFTADKSSSTAYMQLSSLTSEDSAVFYCARGLRGAYYFDYWGQGTTLTVSS VL: DIVLTQSPASLAVSLGLRATISCRSSQSVSTSTNGYMHWYQQKPGQPPKLLIMYASNLESGVPARFSGSGSGTDFTLNIHPVDEEDTATYYCQHSWVLPYTFGGGTKLEIK
8 | 4.6 | anti-B7-H7 antibody 5B10 (antibody, V domains shown) VH: EVQLQQSGPELEKPGASVKISCKASGYSFTGYNMNWVKQSNGKSLEWIGNIDPYSGGSTYNQKFKGKATLTVDKSSSTASLQLKSLTSEDSSVYYCARSFYDAPYLTYWGQGTLVTVSA VL: DIQMTQSPTSLSASVGETVTITCRASENIFIYLAWYQQKQGKSPQLLVFNAKTLAEGVPSRFSGSGSGTQFSLKINSLRPEDFGTYYCQHHYGTPPTFGGGTKLEV
9 | 4.5 | anti-B7-H7 antibody 28F5 (antibody, V domains shown) VH: QVQLKESGPGLVAPSQSLSITCTVSGFSLTGYGVNWVRQPPGKGLEWLGVIWGDGSTDYNSVLKSRLSISKDNSKSQVFLKMNSLQTDDTARYYCAREATEYLYWYFDVWGAGTTVTVSS VL: DIVLTQSPASLAVSLGQRATISCRASESVEYYGSSLMQWYQQKPGQPPKLLIFAASNVESGVPPRFSGSGSGTDFNLNIHPVDEDDIAMYFCQQGRRVPWTFGGGTKLEIK
10 | 3.2 | anti-B7-H7 antibody 1D3 (antibody, V domains shown) VH: EVQLQQSGPELEKPGASVKISCKASGYSFTGYNMNWVKESNGRSLEWIGNIDPYSGGSTYNQKFKGKATMTVDKSSSTAYMQLKSLTSEDSAVYYCARSVYDAPWLAHWGQGTLVTVSA VL: DIQMTQSPASLSASVGETVTITCRASENIYIYLAWYQQKQGKSPQLLVYNAKTLAEGVPSRFSGSGSGTQFSLKINRLQPEDFGNYYCQHHYGTPPTFGGGTKLEIK
11 | 1.2 | anti-B7-H7 antibody 5F7 (antibody, V domains shown) VH: QEQLQQPGTELVKPGASVKISCKASGYTFSSYSMHWVKLTPGQGLEWMGTIYPGNENTSYNQKFKGKATLTADKSSSTAYMQLSSLTSEDSAVYYCARGGYYFDYWGQGTTLTVSS VL: DIVMTQSHKFLSTSVGDRVSITCKASQDVSTAVAWYQQKPGQSPKLLIYWASTRHTGVSDRFTGSGSGTDFTLTISSVQAEDLALYYCQQHFDIPYWFGGGTKLEIK
12 | 0.6 | anti-B7-H7 antibody 2D7 (antibody, V domains shown) VH: EVQLQQSGPELVKPGASVKISCKTSGYTFTEYTMHWVKQSHGKSLEWIGGINPNNYGAPYNQKFKGKATLTVDKSSNTAYMELRSLTSEDSAIYYCASGGYYFDYWGQGTTLTVSS VL: DIVMTQSHKFMSTSFGDRVSITCKASQDVGTAVAWYQQKLGQSPKLLISWAFTRHTGVPDRFTGSGSGTDYTLTISSLQAEDLALYYCQQHYDTPFTFGSGTKLEIK

— patent US20210198366A1
